Results reported in patent publication US20250002593A1 (INMAGENE PTE, published 2025).

T1: Recombinant hIL-36R protein (Acrobio, Cat #IL2-H52H6) (human, UniProt Q9HB29 20-335)
T1 construct: Bought soluble protein; also called recombinant human IL-36R protein
T1 sequence: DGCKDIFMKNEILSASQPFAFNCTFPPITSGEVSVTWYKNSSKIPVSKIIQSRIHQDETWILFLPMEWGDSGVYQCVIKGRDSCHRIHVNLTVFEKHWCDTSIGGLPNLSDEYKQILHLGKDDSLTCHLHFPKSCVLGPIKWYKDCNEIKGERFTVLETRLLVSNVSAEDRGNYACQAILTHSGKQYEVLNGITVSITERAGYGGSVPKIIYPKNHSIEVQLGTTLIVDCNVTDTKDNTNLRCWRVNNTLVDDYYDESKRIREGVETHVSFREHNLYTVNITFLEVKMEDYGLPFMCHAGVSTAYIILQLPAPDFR


What was measured:
[1] = biological target: T1, Recombinant hIL-36R protein (Acrobio, …); experiment: BLI (Gator), antibody on Protein A sensor, hIL-36R analyte; stands under the head kon(1/s), read as koff from KD = koff/kon
Description: (§1) Antibodies was immobilized onto Protein A biosensor after balance. A baseline was detected for 60 seconds. And then antibody-antigen association was detected for 180 seconds to get the Kon factor data. Followed by dissociation in kinetic buffer for 180 seconds to get the Koff factor data. The regeneration of biosensors was in buffer 10 mM glycine, pH2.0. All the kinetics data were collected at 30° C. Data were acquired with Gator Bioanalysis System.

[2] = biological target: T1, Recombinant hIL-36R protein (Acrobio, …); experiment: BLI (Gator), antibody on Protein A sensor, hIL-36R analyte
Description: as §1

[3] = biological target: T1, Recombinant hIL-36R protein (Acrobio, …); experiment: BLI (Gator), antibody on Protein A sensor, hIL-36R analyte; stands under the head koff(1/Ms), read as kon from KD = koff/kon
Description: as §1

[4] = biological target: T1, Recombinant hIL-36R protein (Acrobio, …); experiment: BLI (Gator)
Description: as §1

koff [1] | Kd [2] | kon [3] | Kd [4] | koff [4] | kon [4] | Binder
0.000321 s⁻¹ | 4.03 nM | 79800 M⁻¹ s⁻¹ | – | – | – | 10D12 (antibody, V domains shown, Mouse variable regions, recombinantly expressed) VH: QVQLQQPGTELVKPGASVKLSCKASGYTFTRYWMHWVRQRPGQGLEWIGNINPNIGRANYNEKFKNKATLTVDKSSSTAYMQLSSLTSEDSAVYYCARPGETTDYWGQGTTLTVSS VL: not shown
– | – | – | < 0.1 nM | – | 41000 M⁻¹ s⁻¹ | 5F7-2h1 (antibody, human IgG4 S228P, kappa, V domains shown) VH: EVQLVESGGGLVKPGGSLRLSCAASGYAFTDYYMNWVRQAPGKGLEWVALIRNKAAGYTIYYSAPVKGRFTISRDDSKSTLYLQMNSLKTEDTAVYYCVRDMTIYDGYYVDYALDYWGQGTLVTVSS VL: DIVMTQSPSSVSASVGDRVTITCRASRNINIWLSWYQQKPGKAPKLFIYKASNLHTGVPSRFSGSGSGTDFTLTISSLQPEDFATYYCLQSQSYPLTFGQGTKLEIKR
– | – | – | 2.46 nM | 8.83e-05 s⁻¹ | 35900 M⁻¹ s⁻¹ | 5F7-2d3 (antibody, human IgG4 S228P, kappa, V domains shown) VH: EVQLVESGGGLVKPGGSLRLSCAASGFNFTDYYMNWVRQAPGKGLEWVALIRNKAAGYTIYYSAPVKGRFTISRDDSKSTLYLQMNSLKTEDTAVYYCVRDMTIYDGYYVDYALDYWGQGTLVTVSS VL: DIVMTQSPSSVSASVGDRVTITCRASRNINIWLSWYQQKPGKAPKLFIYKASNLHTGVPSRFSGSGSGTDFTLTISSLQPEDFATYYCLQSQSYPLTFGQGTKLEIKR
5.79e-07 s⁻¹ | 0.00631 nM | 91700 M⁻¹ s⁻¹ | – | – | – | 9H11 (antibody, V domains shown, Mouse variable regions, recombinantly expressed) VH: QVQLQQSGPELVKPGASVKISCKASGYAFSHSWMNWVKQRPGKGLEWIGWIHLGDGDTYYNGKFKGKATLTADKSSSTAYMQLSSLTSEDSAVYFCARSDGNYVPYAMDYWGQGTSVTVSS VL: DIVITQTTSSLSASLGDRVTISCRASQDISNYLSWYQQKPDGTVKLLIYYTSRLHSGVPSRFSGSGSGTDYSLTISSLEQEDIATYFCQQDSEHPWTFGGGTELDVR

More lines, now with the values behind:

Binder | koff [1] | Kd [2] | kon [3] | Kd [4] | koff [4] | kon [4]
5F7-2c4 (antibody, human IgG4 S228P, kappa, V domains shown) VH: EVQLVESGGGLVKPGGSLRLSCAASGFAFTDYYLRWVRQAPGKGLEWVALIRNKAAGYTIYYSAPVKGRFTISRDDSKSTLYLQMNSLKTEDTAVYYCVRDMTIYDGYYVDYALDYWGQGTLVTVSS VL: DIVMTQSPSSVSASVGDRVTITCRASRNINIWLSWYQQKPGKAPKLFIYKASNLHTGVPSRFSGSGSGTDFTLTISSLQPEDFATYYCLQSQSYPLTFGQGTKLEIKR | – | – | – | 2060 nM | 0.000418 s⁻¹ | 203 M⁻¹ s⁻¹
5F7-2g10 (antibody, human IgG4 S228P, kappa, V domains shown) VH: EVQLVESGGGLVKPGGSLRLSCAASGFAFTDYYLSWVRQAPGKGLEWVALIRNKAAGYTIYYSAPVKGRFTISRDDSKSTLYLQMNSLKTEDTAVYYCVRDMTIYDGYYVDYALDYWGQGTLVTVSS VL: DIVMTQSPSSVSASVGDRVTITCRASRNINIWLSWYQQKPGKAPKLFIYKASNLHTGVPSRFSGSGSGTDFTLTISSLQPEDFATYYCLQSQSYPLTFGQGTKLEIKR | – | – | – | 0.638 nM | 1.84e-05 s⁻¹ | 28900 M⁻¹ s⁻¹
1C11 (antibody, V domains shown, Mouse variable regions, recombinantly expressed) VH: EVQVQQSGTELVKPGASVKLSCKASGYTFTNYWLHWVKQRPGQGLEWIGNINPSNGGTNYNEKFKTKATLTVDKSSSTAYMQLSSLTSEDSAVYYCARYSTGFAYWGQGTLVTVSA VL: DIVLTQTTASLAVSLGQRATISCRASESVDTYGASFMHWYQQKPGQPPKLLIYRASNLESGIPARFSGSGSRTDFTLTVNPVEADDVATYYCQQSNEDPRTFGGGTKLEIK | 0.000872 s⁻¹ | 13.7 nM | 63800 M⁻¹ s⁻¹ | – | – | –
10F6 (antibody, V domains shown, Mouse variable regions, recombinantly expressed) VH: QVQLQQSGAELVKPGASVRLSCKASGYTFTEFTIHWVKQRSGQGLEWIGWFYPGSDFIKYNEKFKDKATLTADKSSNTVYMELLRLTSEDSAVYFCARHEDRLSDYSYEWYFDVWGAGTAVTVSS VL: DIQMTQSPASLSASVGETVTITCRASENIDSYLAWYQQKQGKSPQLLVYGATLLADGVPSRFSGSGSGTQYSLKINSLQSEDVAEYFCQHYYSIPLTFGAGTKLELK | 0.000137 s⁻¹ | 0.901 nM | 152000 M⁻¹ s⁻¹ | – | – | –
